Data as given in article PMC7289600, “Signaling diversity enabled by Rap1-regulated plasma membrane ERK with distinct temporal dynamics” (eLife, 2020).

T1: Rap1-binding domain (RBD) from RalGDS fused to the acceptor fluorophore Ypet (second chain of Rap1A/B-FLARE) (UniProt Q12967 798-885)
T1 construct: also called RalGDS RBD; source: PC12 cells, transfected (Lipofectamine 2000), in living cells
T1 sequence (looked up): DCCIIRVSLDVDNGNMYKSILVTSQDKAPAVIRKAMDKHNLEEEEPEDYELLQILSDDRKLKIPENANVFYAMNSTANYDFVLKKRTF


Target: T1, Rap1-binding domain (RBD) from RalGDS …
Assay: FRET or BRET; dual-chain Rap1A/B-FLARE biosensors expressed in living PC12 cells; EGF added at time 0; yellow over cyan (Y/C) emission ratio imaging in HBSS at 37°C; increase abrogated by co-expression of Rap1GAP or by GGTI-298
Details: partners not purified

Row | increase in Y/C emission ratio (FRET) after EGF [%] | Binder
1 | 25.4 | Rap1A fused to the donor fluorophore mCerulean3 (Rap1A chain of the dual-chain biosensor Rap1A-FLARE) (natural protein, UniProt P62834 1-184, looked up, Rap1A, GTPase of the Ras family; plasmid provided by Klaus Hahn; source: PC12 cells, transfected (Lipofectamine 2000), in living cells; not shown: mCerulean3, N-terminal, kept) MREYKLVVLGSGGVGKSALTVQFVQGIFVEKYDPTIEDSYRKQVEVDCQQCMLEILDTAGTEQFTAMRDLYMKNGQGFALVYSITAQSTFNDLQDLREQILRVKDTEDVPMILVGNKCDLEDERVVGKEQGQNLARQWCNCAFLESSAKSKINVNEIFYDLVRQINRKTPVEKKKPKKKSCLLL
2 | 26 | Rap1B fused to the donor fluorophore mCerulean3 (Rap1B chain of the dual-chain biosensor Rap1B-FLARE) (natural protein, UniProt P61224 1-184, looked up, Rap1B, GTPase of the Ras family; plasmid provided by Klaus Hahn; source: PC12 cells, transfected (Lipofectamine 2000), in living cells; not shown: mCerulean3, N-terminal, kept) MREYKLVVLGSGGVGKSALTVQFVQGIFVEKYDPTIEDSYRKQVEVDAQQCMLEILDTAGTEQFTAMRDLYMKNGQGFALVYSITAQSTFNDLQDLREQILRVKDTDDVPMILVGNKCDLEDERVVGKEQGQNLARQWNNCAFLESSAKSKINVNEIFYDLVRQINRKTPVPGKARKKSSCQLL
